Measurements reported in paper PMC3585964, “Tissue Inhibitor of Metalloproteinases-3 Peptides Inhibit Angiogenesis and Choroidal Neovascularization in Mice” (PLoS ONE, 2013).
Entries after “also recorded” stand apart in the source; their conditions may differ. Where two headings read alike, the source gives them in different places. Ends that are not written are not given here. Peptide text beside a SMILES is read from it.

Columns and labels:
[1] = molecular target: VEGFR-2 (KDR/Fc chimera) binding to VEGF (Homo sapiens, UniProt P35968); assay: Competitive ELISA, binding of sVEGFR-2/Fc to immobilized VEGF
VEGFR-2 (KDR/Fc chimera) binding to VEGF, sequence (P35968 with tags, fused parts or gaps limits assumed): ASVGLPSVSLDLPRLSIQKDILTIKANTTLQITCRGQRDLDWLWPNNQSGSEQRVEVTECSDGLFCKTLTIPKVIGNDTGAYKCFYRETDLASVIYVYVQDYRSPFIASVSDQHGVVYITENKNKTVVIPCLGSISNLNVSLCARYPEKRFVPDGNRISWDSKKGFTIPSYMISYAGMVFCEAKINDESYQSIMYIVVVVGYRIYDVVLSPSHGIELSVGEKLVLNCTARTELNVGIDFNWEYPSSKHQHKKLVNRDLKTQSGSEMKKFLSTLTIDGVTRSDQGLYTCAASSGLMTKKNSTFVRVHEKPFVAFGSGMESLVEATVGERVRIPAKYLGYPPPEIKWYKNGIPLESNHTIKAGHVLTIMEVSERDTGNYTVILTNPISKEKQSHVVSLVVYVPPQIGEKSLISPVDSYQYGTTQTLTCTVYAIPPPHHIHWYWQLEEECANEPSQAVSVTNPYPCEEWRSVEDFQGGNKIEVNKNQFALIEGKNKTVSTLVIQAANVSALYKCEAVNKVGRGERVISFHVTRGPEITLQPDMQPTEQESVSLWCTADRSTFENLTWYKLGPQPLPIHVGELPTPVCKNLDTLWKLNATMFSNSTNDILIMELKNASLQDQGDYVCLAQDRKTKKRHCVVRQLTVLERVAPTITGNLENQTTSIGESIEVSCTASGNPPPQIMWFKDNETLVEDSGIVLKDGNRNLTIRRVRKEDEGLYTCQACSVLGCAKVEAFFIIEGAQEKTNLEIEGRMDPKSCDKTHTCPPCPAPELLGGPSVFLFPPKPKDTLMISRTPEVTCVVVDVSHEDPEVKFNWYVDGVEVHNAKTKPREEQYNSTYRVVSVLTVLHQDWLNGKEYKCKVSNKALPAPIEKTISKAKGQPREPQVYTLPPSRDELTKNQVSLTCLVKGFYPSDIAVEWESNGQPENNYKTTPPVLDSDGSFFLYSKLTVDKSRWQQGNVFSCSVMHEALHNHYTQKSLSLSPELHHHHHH
Protocol: (§1) 96 well EIA/RIA strip plates (COSTAR) were coated with 80 ng/ml recombinant VEGF overnight at 4°C, washed and blocked with blocking buffer (1% BSA and 5% sucrose) overnight at 4°C. Series of dilutions were prepared for recombinant proteins representing WT-TIMP-3, NT2:CT3 and N-T3 in PBS or synthetic peptides corresponding to T3-loop 5, T3-loop 6, T3-N or T3-tail peptides in 0.5 M Tris-HCl (pH 7.5). The diluents were mixed with 50 ng/ml recombinant human VEGFR-2 (KDR/Fc chimera, recombinant human VEGFR-1 (Flt-1)/Fc chimera (R&D Systems, Minneapolis, MN) or control human lgG (Sigma Aldrich, St Louis, MO). The mixtures were then added to the VEGF-coated well in a final volume of 100 µL in PBS and incubated for 2 hours at room temperature. Bound VEGFR-2 was detected by HRP-conjugated anti-human lgG(Fc specific) (1∶1000).

[2] = system: VEGFR-1 (Flt-1)/Fc chimera binding to VEGF; assay: Competitive ELISA, binding of sVEGFR-1/Fc to immobilized VEGF; parameters: species or system human; conditions: 50 ng/ml sVEGFR-1 (sFlt-1)
Protocol: as §1

[3] = system: angiogenesis; VEGF binding to VEGFR-2; conditions: cited from earlier work
Source text: Tissue inhibitors of metalloproteinases (TIMPs) constitute a family of four proteins (TIMP-1, TIMP-2, TIMP-3 and TIMP-4) that are endogenous inhibitors of […] and play a critical role in the maintenance of extracellular matrix (ECM) homeostasis. In general, all four TIMPs are broad-spectrum inhibitors of the MMP family, with some differences in specificity. […] Based on these studies we designed experiments t ... || Sorsby fundus dystrophy (SFD), an autosomal dominant, fully penetrant, degenerative disease of the macula, [25] is manifested by symptoms of night blindness or sudden loss of acuity, usually in the third to fourth decades of life due to submacular neovascularization, [27], [28], [29]. SFD is caused by specific mutations in the tissue inhibitor of metalloproteinases-3 (TIMP-3) gene, [31], [32], [33], [34], [35], [36], [37], most of which introduce an unpaired cysteine at the C-terminus of the protein. We have recently reported that S156C mutation in TI ...

[4] = read-out: IC50, inhibition of VEGF binding to sVEGFR-2/Fc chimera (recombinant proteins), competitive ELISA, 50 ng/ml human VEGFR-2/Fc, plate coated with 80 ng/ml VEGF, 2 h room temperature, proteins in PBS

**Q.** Which IC50 [1] does the source give for `CC[C@H](C)[C@H](NC(=O)[C@H](CS)NC(=O)[C@H](C)NC(=O)[C@H](Cc1ccc(O)cc1)NC(=O)[C@H](Cc1c[nH]cn1)NC(=O)[C@H](CCCCN)NC(=O)[C@H](CO)NC(=O)[C@H](CCC(N)=O)NC(=O)[C@H](Cc1ccc(O)cc1)NC(=O)CNC(=O)[C@@H]1CCCN1C(=O)[C@H](Cc1ccc(O)cc1)NC(=O)CNC(=O)[C@H](Cc1ccccc1)NC(=O)[C@H](CC(N)=O)NC(=O)[C@H](CO)NC(=O)[C@H](CC(C)C)NC(=O)[C@H](CCSC)NC(=O)[C@H](CC(=O)O)NC(=O)[C@@H](NC(=O)[C@H](Cc1c[nH]c2ccccc12)NC(=O)[C@H](CC(C)C)NC(=O)[C@H](CS)NC(=O)[C@H](CCC(=O)O)NC(=O)[C@H](CC(N)=O)NC(=O)[C@@H](N)CCCCN)[C@@H](C)O)C(=O)N[C@@H](CCCNC(=N)N)C(=O)N[C@@H](CCC(N)=O)C(=O)N[C@@H](CCCCN)C(=O)NCC(=O)O` [T3-loop 6] (H-KNECLWTDMLSNFGYPGYQSKHYACIRQKG-OH) here?
**A.** Its IC50 is 2 µM.

**Q.** Which IC50 [1] does the source give for GYCSWYRGWAPPDKSIINATDP [T3-tail] here?
**A.** The IC50 was 5 µM.

B1: WT-TIMP-3: Full length, recombinant human TIMP-3 purified from stably transfected mouse myeloma cells (protein, UniProt P35625 1-211, looked up)
chain: MTPWLGLIVLLGSWSLGDWGAEACTCSPSHPQDAFCNSDIVIRAKVVGKKLVKEGPFGTLVYTIKQMKMYRGFTKMPHVQYIHTEASESLCGLKLEVNKYQYLLTGRVYDGKMYTGLCNFVERWDQLTLSQRKGLNYRYHLGCNCKIKSCYYLPCFVTSKNECLWTDMLSNFGYPGYQSKHYACIRQKGGYCSWYRGWAPPDKSIINATDP
modifications: full-length
notes: Full length, recombinant human TIMP-3 purified from stably transfected mouse myeloma cells
**Q.** What does the source list for B1?
**A.** Effect of recombinant proteins on VEGF binding to VEGFR-1 (in words) [2]: unable to block sVEGFR-1-VEGF complexes; also recorded: neither full length WT-TIMP-3 nor COOH-terminal TIMP-3 blocked the binding of VEGF to VEGFR1; Blocking of VEGF binding to VEGFR-2 / angiogenesis inhibition (literature) ([3]; independent of MMP inhibitory activity, ref [8]): potent angiogenesis inhibitor; Inhibition of angiogenesis independent of MMP inhibition (literature) ([3]; ref [8], [21], [22]): Inhibition of angiogenesis; Effect of recombinant proteins on VEGF-VEGFR-2 complexes (in words) ([1]; competitive ELISA, 50 ng/ml sVEGFR-2, proteins in PBS): inhibit sVEGFR-2-VEGF complexes in a concentration-dependent manner; also recorded: markedly decreased; IC50 [1, 4]: 0.041 µM

B2: NT2:CT3: NH2-terminal TIMP-2: COOH-terminal TIMP-3 chimera (residues 1–126 of TIMP-2 and residues 122–188 of TIMP-3) (protein)
chain: CSCSPVHPQQAFCNADVVIRAKAVSEKEVDSGNDIYGNPIKRIQYEIKQIKMFKGPEKDIEFIYTAPSSAVCGVSLDVGGKKEYLIAGKAEGDGKMHITLCDFIVPWDTLSTTQKKSLNHRYQMGCCKIKSCYYLPCFVTSKNECLWTDMLSNFGYPGYQSKHYACIRQKGGYCSWYRGWAPPDKSIINATDP
modifications: Limits are in mature numbering (TIMP-2 offset +26, TIMP-3 offset +23); Methods print TIMP-2 1-127 and Results print 1-126; the Methods limit i
**Q.** For B2, which IC50 [1, 4] is on record?
**A.** The IC50 was 0.028 µM.

B3: S156C mutation in TIMP-3: TIMP-3 with the S156C mutation (Sorsby fundus dystrophy) (protein, UniProt P35625 24-211, looked up, variant S156C)
Metalloproteinase inhibitor 3: CTCSPSHPQDAFCNSDIVIRAKVVGKKLVKEGPFGTLVYTIKQMKMYRGFTKMPHVQYIHTEASESLCGLKLEVNKYQYLLTGRVYDGKMYTGLCNFVERWDQLTLSQRKGLNYRYHLGCNCKIKSCYYLPCFVTSKNECLWTDMLSNFGYPGYQCKHYACIRQKGGYCSWYRGWAPPDKSIINATDP
**Q.** Which “Effect of TIMP-3 mutation on angiogenesis (literature)” value ([3]; ref [18]) does the source give for B3 here?
**A.** The value was “induces increased angiogenesis”.
